Measurements as given in PMC4070910, “Cathepsin S Signals via PAR2 and Generates a Novel Tethered Ligand Receptor Agonist” (PLoS ONE, 2014).

Legend:
human PAR2 [1] = assay: Fura-2 calcium imaging in HeLa cells transfected with PAR2 cDNA; type: cell-based
Experimental: (§1) Human PAR2 cDNA was cloned as an Xho I-Hind III fragment (1206 bp) into pcDNA3.1(−). 10 µg of DNA were diluted into 0.5 ml of DMEM and mixed with 0.5 ml of DMEM containing 10 µl of Lipofectamine 2000 transfection reagent and incubated at room temperature for 20 minutes. HeLa cells were grown to confluence, trypsinized and 1×10^6 cells were pelleted in a 15 ml tube by centrifugation at 1000 rpm for 5 minutes. The DMEM-Lipofectamine 2000-DNA mixture (1 ml) was added to the cell pellet, resuspended gently and incubated at room temperature for 20 minutes. Four ml of complete DMEM with 10% FBS were added to the tube, mixed by inverting the tube several times, plated into a 96-well glass bottom plate at 20,000 cells/well, and placed in a 37°C CO2 incubator. HeLa cells transfected with vector alone or salmon sperm DNA (shown in the figures) were plated as a control. The medium was aspirated two days after transfection. Fura-2 was used as a ratiometric calcium-sensitive indicator as follows. 100 µl of complete DMEM containing 2 µM of Fura-2 were added to each well and left at room temperature in the dark for 1 hr. Following loading with Fura-2, the medium was aspirated and replaced with 90 µl of HEPES-buffered saline (20 mM HEPES, 115 mM NaCl, 5.4 mM KCl, 2 mM CaCl2, 0.8 mM MgCl2, 13.8 mM glucose, pH 7.4).
Imaging was performed using a Zeiss Axiovert 200 M microscope platform equipped with a flipping filter wheel for ratiometric imaging. Axiovision software, version 4.6 was used for image analysis of the cells which were excited at 340 nm and 380 nm. Ten µl of peptide agonist were added at 20 seconds after the start of the excitation procedure. Images were taken every 5 seconds, including at zero time, during a 3-minute period or longer if required. The software later analyzed all images taken during each excitation period. Typically, ratiometric changes were measured in 10–20 cells in each image. An average of the fluorescence of the cells in each image was calculated and plotted against time in seconds.
HeLa cells transfected with PAR2 cDNA were subjected to ratiometric imaging as described above with PAR2 peptides, SLIGRL, KVDGTS, and SLIGKVDGTS in addition to the reverse peptides LRGILS and STGDVK at concentrations from 1 nM - 1 mM. Each of the concentration-dependent readings was performed in triplicate. Maximum intensities at each of the dilutions were calculated and plotted against concentration using GraphPad/PRISM software version 6.0 (Irvine, CA). Error bars represent +/−SEM.

[2] = tested on: luciferase-PAR2M1 (leucine38 to alanine); assay: Gaussia luciferase release, luciferase-PAR2M1; type: cell-based, human; conditions: cathepsin S 2 µM, 10 minutes, room temperature, triplicate
Source text: Gaussia luciferase cDNA was cloned, without its termination codon, into pcDNA3.1(−) as an Xho I-EcoR I fragment. Human PAR2 cDNA and its mutants, M1, M2 and M3, were generated using PCR primers designed to start after the signal sequence and end with a termination codon: […] and […] . The PCR amplified cDNAs were cloned into EcoR I and Hind III sites C-terminal to Gaussia luciferase cDNA. The resulting plasmids were called pGLPAR2, pGLPAR2M1, pGLPAR2M2 and pGLPAR2M3.
The QuickChange site-directed mutagenesis procedure (Agilent Technologies, Santa Clara, CA) was used to generate PAR2 N-terminal mutants. PAR2M1, with a single amino acid change, was created by substituting the leucine^38 codon, CTT, with alanine, GCT, using the primers: PAR2M1F, […], and PAR2M1R, […]. […]
The plasmid DNAs pGLPAR2, pGLPAR2M1, pGLPAR2M2 and pGLPAR2M3 (10 µg of each) were transfected into 2×10^6 HeLa cells as described above and plated into 10 cm dishes. […] Cells were scraped in order to eliminate the use of trypsin, which could activate PARs, and allowed for the luminescence assay to be performed in a small volume. […] Luminescence assays were performed in triplicate on 50 µl of the supernatants according to the instructions of the manufacturer (New England Biolabs, Ipswich, MA).

[3] = tested on: NHEKs which endogenously express PAR2; assay: Calcium imaging in normal human epidermal keratinocytes (NHEKs); type: cell-based
Source text: HeLa cells were obtained from the ATCC and maintained in DMEM supplemented with fetal bovine serum (Fisher Biochemicals), L-glutamine, penicillin and streptomycin. Normal human epidermal keratinocytes (NHEKs) were harvested from neonatal foreskin and maintained in Keratinocyte Serum-Free media supplemented with epidermal growth factor, bovine pituitary extract, L-glutamine, penicillin and streptomycin. All reagents were obtained from Invitrogen unless otherwise noted.
as §1, with “Following loading with Fura-2, the medium was aspirated and replaced with 90 µl of HEPES-buffered saline (20 mM HEPES, 115 mM NaCl, 5.4 mM KCl, 2 mM CaCl2, 0.8 mM MgCl2, 13.8 mM glucose, pH 7.4).” left out
Imaging was performed using a Zeiss Axiovert 200 M microscope platform equipped with a flipping filter wheel for ratiometric imaging. […] The software later analyzed all images taken during each excitation period. Typically, ratiometric changes were measured in 10–20 cells in each image. An average of the fluorescence of the cells in each image was calculated and plotted against time in seconds.

human PAR2 [4] = assay: IP1 (IP-One HTRF) assay in PAR2-transfected HeLa cells; type: cell-based; conditions: 1 hour, 37°C, KVDGTS 100 µM, SLIGRL 10 µM, cathepsin S 1 µM
Experimental: To determine the effect of PAR2 activation on Gq stimulation, we measured IP1, a downstream metabolite of IP3, using the IP-One HTRF assay from Cis Bio, Medford, MA. HeLa cells were transfected with salmon sperm DNA or PAR2 cDNA as described above, plated in 10 cm culture dishes and incubated at 37°C with 5% CO2. After 24 hours, the cells were trypsinized, counted, plated into 96-well plates at 80,000 cells/well and incubated for another 24 hours. The medium was replaced with a stimulation buffer containing LiCl, per the instructions of the manufacturer. Ligands, including cathepsin S (1 µM), KVDGTS (100 µM) and SLIGRL (10 µM) were added to wells and incubated at 37°C for 1 hour and IP1 levels determined. This assay was performed on multiple wells containing each ligand on three occasions. Error bars represent SEM.

B1: cathepsin S: Recombinant human cathepsin S, cysteine protease, expressed in E.coli, refolded and activated (protein, UniProt P25774 115-331, looked up)
Cathepsin S: LPDSVDWREKGCVTEVKYQGSCGACWAFSAVGALEAQLKLKTGKLVSLSAQNLVDCSTEKYGNKGCNGGFMTTAFQYIIDNKGIDSDASYPYKAMDQKCQYDSKYRAATCSKYTELPYGREDVLKEAVANKGPVSVGVDARHPSFFLYRSGVYYEPSCTQNVNHGVLVVGYGDLNGKEYWLVKNSWGHNFGEEGYIRMARNKGNHCGIASFPSYPEI
effect as first agent on calcium response to second agent (in words) (human PAR2 [1]; PAR2-transfected HeLa, KVDGTS 100 µM, cathepsin S 2 µM, papain 2 µM, trypsin 10 nM, second agent after up to 60 minutes, room temperature): failed to induce a calcium response at any time up to 60 minutes
calcium response to the substance as second agent after KVDGTS (in words) (human PAR2 [1]; PAR2-transfected HeLa, second agent after 2, 3, 5, 10, 30 and 60 minutes (cathepsin S), papain 2 µM, trypsin 10 nM, room temperature): present but reduced
calcium response (in words) (human PAR2 [1]; single-cell imaging, KVDGTS 100 µM, SLIGRL 10 µM, IGKVDG 100 µM, cathepsin S 2 µM, room temperature): able to stimulate native PAR2 and PAR2M1
concentration at which active/effective (human PAR2 [1]; summary of these studies (discussion)): 1 to 2 µM
receptor cleavage, luciferase luminescence (in words) [2]: cleaved the native and PAR2M1 receptors
calcium response in NHEKs (in words) ([3]; KVDGTS 100 µM, cathepsin S 2 µM): activated NHEKs
calcium response to the substance as second agent after KVDGTS (in words) ([3]; NHEKs, KVDGTS 100 µM then cathepsin S 2 µM, second agent at 300 s): attenuated
effect as first agent on calcium response to second agent (in words) ([3]; NHEKs, KVDGTS 100 µM, cathepsin S 2 µM, second agent at 300 s): abolishes the response to the subsequent addtion of KVDGTS
IP1 level (human PAR2 [4]; KVDGTS and SLIGRL after subtracting baseline values, cathepsin S 'in this particular experiment'): 122 nM
IP1 generation (in words) (human PAR2 [4]; three occasions): consistently generated higher levels of IP1 than either SLIGRL or KVDGTS
